Starred links: 1 amine or outer side, 2 acyl side, 3 side chain; linkers in the order of their positions; H or OH if unused. Non-standard residues stand in square brackets, D forms with d. Groups on a side chain read outwards from the residue. No end group written: not given here. *: point of attachment. Amino‑C3‑Gly(Bis) = branched linker 2-[bis(3-aminopropyl)amino]acetyl, two legs on the propylamino groups, O=C(CN(CCCN[*:1])CCCN[*:3])[*:2]; C20 diacid = O=C(O)CCCCCCCCCCCCCCCCCCC(=O)*; C18 diacid = O=C(O)CCCCCCCCCCCCCCCCC(=O)*; γGlu = O=C(O)[C@H](CCC(=O)[*:2])N[*:1]; Trx = NC[C@H]1CC[C@H](C(=O)O)CC1; AEEA = NCCOCCOCC(=O)O; Aib = CC(C)(N)C(=O)O
Assays:
human GLP-1 receptor [1] = target: T1, human GLP-1 receptor (human, UniProt P43220 24-463); test: cell-based or functional assay
human GLP-1 receptor [2] = target: T1, human GLP-1 receptor; test: competitive SPA, displacement of [125I]-GLP-1-(7-36)NH2 from BHK membranes with human GLP-1 receptor, high HSA (2.0%)
Experimental: (§1) 1. For the receptor binding assay in the presence of low HSA (0.005%) 50 μl of the assay buffer was added to each well of an assay plate. Assay continued with step 3. 2. For the receptor binding assay in the presence of high HSA (2%) 50 μl of the 8% albumin stock was added to each well of an assay plate. Assay continued with step 3. 3. […] 4. Cell membrane aliquots were thawed and diluted to their working concentration. Fifty μl were added to each well in the assay plate. 5. WGA SPA beads were suspended in assay buffer at 20 mg/ml. The suspension was diluted to 10 mg/ml in assay buffer just prior to addition to the assay plate. Fifty μl were added to each well in the assay plate. 6. […] A 25 μl aliquot was reserved for measuring total counts/well. 7. The assay plate was incubated for 2 h at 30° C. 8. The assay plate was centrifuged for 10 min. 9. The assay plate was read in a Packard TopCount NXT instrument.
(§2) The data from the TopCount instrument were transferred to GraphPad Prism software. Individual replicates were analysed using non-linear regression.

human GLP-1 receptor [3] = target: T1, human GLP-1 receptor; test: competitive SPA, displacement of [125I]-GLP-1-(7-36)NH2 from BHK membranes with human GLP-1 receptor, low HSA (max. 0.001%)
Experimental: as §1, with “For the receptor binding assay in the presence of low HSA (0.005%) 50 μl of the assay buffer was added to each well of an assay plate.” left out
as §2

Binder | EC50 (pM), in vitro potency, CRE luciferase reporter gene assay in BHK cells expressing the human GLP-1 receptor (human GLP-1 receptor [1]) [pM] | IC50 (human GLP-1 receptor [2]) [nM] | IC50 (human GLP-1 receptor [3]) [nM]
XXEGTFTSDVSSYLEEQAAREFIAWLVRGRK (not fully specified; Imp (imidazopropionic acid, deamino-histidine) at 7; Aib at 8; Lys37 epsilon-acylated with the branched side chain of the name (GLP-1(7-37) numbering, first residue = 7)) [N{Epsilon-37}-[2-[3-[[2-[2-[2-[[2-[2-[2-[[2-[2-[2-[[2-[2-[2-[[(2S)-2- …] | 12 | 45 | 0.13
H[Aib]EGTFTSDVSSYLEEQAAREFIAWLVRK([AEEA-AEEA-AEEA-AEEA-AEEA-AEEA-Amino‑C3‑Gly(Bis)-code 2×γGlu-Trx-C20 diacid])RG (X = Aib) [N{Epsilon-35}-[2-[2-[2-[[2-[2-[2-[[2-[2-[2-[[2-[2-[2-[[2-[2-[2-[[2- …] | 9.5 | 7.2 | 0.33
H[Aib]EGTFTSDVSSYLEEQAAREFIEWLVRGK([AEEA-AEEA-AEEA-AEEA-Amino‑C3‑Gly(Bis)-code 2×γGlu-C18 diacid])G | 7.1 | 110 | 1.1
H[Aib]EGTFTSDVSSYLEEQAAREFIAWLVRGK([Amino‑C3‑Gly(Bis)-code 2×AEEA-AEEA-AEEA-AEEA-γGlu-C18 diacid])G |  |  | 0.68
H[Aib]EGTFTSDVSSYLEEQAAREFIAWLVRGK([AEEA-AEEA-AEEA-AEEA-AEEA-AEEA-Amino‑C3‑Gly(Bis)-code 2×γGlu-Trx-C20 diacid])G [N{Epsilon-36}-[2-[2-[2-[[2-[2-[2-[[2-[2-[2-[[2-[2-[2-[[2-[2-[2-[[2- …] |  |  | 1.2
H[Aib]EGTFTSDVSSYLEEQAAREFIAWLVRGRPK([Amino‑C3‑Gly(Bis)-code 2×AEEA-AEEA-AEEA-AEEA-AEEA-AEEA-γGlu-Trx-C20 diacid]) (analogue (8Aib, 22E, 26R, 34R, 37P, 38K) GLP-1(7-37)) | 15 | 30 | 0.31
